These results are taken from ChEMBL document CHEMBL1133169, “A light-inactivated antibiotic” (2000).

Substrate in this data set: CC(=O)OCC1=C(C(=O)O)N2C(=O)[C@@H](NC(=O)[C@@H](Cc3ccccc3)NNC(=O)OCc3ccccc3[N+](=O)[O-])C2SC1
The data set is described as follows: The turnover kinetic parameter (Km) evaluated for Class A TEM-1 beta-lactamase.

B1: Beta-lactamase TEM (Escherichia coli), P62593 (protein)
chain: MSIQHFRVALIPFFAAFCLPVFAHPETLVKVKDAEDQLGARVGYIELDLNSGKILESFRPEERFPMMSTFKVLLCGAVLSRVDAGQEQLGRRIHYSQNDLVEYSPVTEKHLTDGMTVRELCSAAITMSDNTAANLLLTTIGGPKELTAFLHNMGDHVTRLDRWEPELNEAIPNDERDTTMPAAMATTLRKLLTGELLTLASRQQLIDWMEADKVAGPLLRSALPAGWFIADKSGAGERGSRGIIAALGPDGKPSRIVVIYTTGSQATMDERNRQIAEIGASLIKHW
As for B1, the Km came out at 80 µM.

A word on the Km: it is the substrate concentration at which the rate is half of its maximum.
